Measurements taken from the Human Domainome abundance scans (Beltran et al. 2025).
± gives the uncertainty stated by the source.

Assay: abundance fitness (aPCA) (normalised: wild type 0, dead -1); higher = more abundant; growth selection in yeast, the domain comes from the species named
Conditions: Homo sapiens

Substance	abundance fitness
E3 ubiquitin-protein ligase NEDD4-like S184E, Q96PU5	-0.507 ± 0.49
E3 ubiquitin-protein ligase NEDD4-like S184F, Q96PU5	0.13 ± 0.084
E3 ubiquitin-protein ligase NEDD4-like S184G, Q96PU5	-0.476 ± 0.11
E3 ubiquitin-protein ligase NEDD4-like S184H, Q96PU5	-0.437 ± 0.15
E3 ubiquitin-protein ligase NEDD4-like S184L, Q96PU5	-0.599 ± 0.14
E3 ubiquitin-protein ligase NEDD4-like S184M, Q96PU5	0.884 ± 0.2
E3 ubiquitin-protein ligase NEDD4-like S184N, Q96PU5	-0.554 ± 0.4
E3 ubiquitin-protein ligase NEDD4-like S184P, Q96PU5	-0.682 ± 0.26
E3 ubiquitin-protein ligase NEDD4-like S184R, Q96PU5	-1.23 ± 0.22
E3 ubiquitin-protein ligase NEDD4-like S184V, Q96PU5	-0.505 ± 0.13
E3 ubiquitin-protein ligase NEDD4-like S184W, Q96PU5	-1.33 ± 0.15
E3 ubiquitin-protein ligase NEDD4-like S184Y, Q96PU5	-0.099 ± 0.12
E3 ubiquitin-protein ligase NEDD4-like S225A, Q96PU5	-0.068 ± 0.073
E3 ubiquitin-protein ligase NEDD4-like S225C, Q96PU5	-0.29 ± 0.099
E3 ubiquitin-protein ligase NEDD4-like S225D, Q96PU5	-0.006 ± 0.065
E3 ubiquitin-protein ligase NEDD4-like S225E, Q96PU5	0.041 ± 0.081
E3 ubiquitin-protein ligase NEDD4-like S225F, Q96PU5	-0.267 ± 0.081
E3 ubiquitin-protein ligase NEDD4-like S225G, Q96PU5	-0.072 ± 0.068
E3 ubiquitin-protein ligase NEDD4-like S225H, Q96PU5	-0.264 ± 0.14
E3 ubiquitin-protein ligase NEDD4-like S225I, Q96PU5	-0.038 ± 0.1
E3 ubiquitin-protein ligase NEDD4-like S225K, Q96PU5	0.019 ± 0.095
E3 ubiquitin-protein ligase NEDD4-like S225L, Q96PU5	-0.095 ± 0.056
E3 ubiquitin-protein ligase NEDD4-like S225M, Q96PU5	-0.136 ± 0.092

Substance	abundance fitness
E3 ubiquitin-protein ligase NEDD4-like S225P, Q96PU5	0.018 ± 0.083
E3 ubiquitin-protein ligase NEDD4-like S225Q, Q96PU5	0.048 ± 0.063
E3 ubiquitin-protein ligase NEDD4-like S225R, Q96PU5	-0.024 ± 0.064
E3 ubiquitin-protein ligase NEDD4-like S225T, Q96PU5	-0.066 ± 0.079
E3 ubiquitin-protein ligase NEDD4-like S225V, Q96PU5	-0.018 ± 0.076
E3 ubiquitin-protein ligase NEDD4-like S225W, Q96PU5	-0.312 ± 0.068
E3 ubiquitin-protein ligase NEDD4-like S225Y, Q96PU5	-0.395 ± 0.12
E3 ubiquitin-protein ligase NEDD4-like S230A, Q96PU5	-0.024 ± 0.058
E3 ubiquitin-protein ligase NEDD4-like S230C, Q96PU5	-0.067 ± 0.066
E3 ubiquitin-protein ligase NEDD4-like S230D, Q96PU5	-0.023 ± 0.095
E3 ubiquitin-protein ligase NEDD4-like S230E, Q96PU5	-0.034 ± 0.066
E3 ubiquitin-protein ligase NEDD4-like S230F, Q96PU5	-0.139 ± 0.11
E3 ubiquitin-protein ligase NEDD4-like S230G, Q96PU5	-0.081 ± 0.054
E3 ubiquitin-protein ligase NEDD4-like S230H, Q96PU5	-0.002 ± 0.09
E3 ubiquitin-protein ligase NEDD4-like S230I, Q96PU5	-0.274 ± 0.13
E3 ubiquitin-protein ligase NEDD4-like S230K, Q96PU5	-0.186 ± 0.092
E3 ubiquitin-protein ligase NEDD4-like S230L, Q96PU5	-0.29 ± 0.071
E3 ubiquitin-protein ligase NEDD4-like S230N, Q96PU5	0.108 ± 0.071
E3 ubiquitin-protein ligase NEDD4-like S230P, Q96PU5	-0.027 ± 0.085
E3 ubiquitin-protein ligase NEDD4-like S230Q, Q96PU5	0.025 ± 0.077
E3 ubiquitin-protein ligase NEDD4-like S230R, Q96PU5	-0.095 ± 0.066
E3 ubiquitin-protein ligase NEDD4-like S230T, Q96PU5	-0.051 ± 0.067
E3 ubiquitin-protein ligase NEDD4-like S230V, Q96PU5	-0.136 ± 0.059

Substance	abundance fitness
E3 ubiquitin-protein ligase NEDD4-like S230W, Q96PU5	-0.496 ± 0.085
E3 ubiquitin-protein ligase NEDD4-like S230Y, Q96PU5	-0.204 ± 0.12
E3 ubiquitin-protein ligase NEDD4-like S231A, Q96PU5	-0.099 ± 0.075
E3 ubiquitin-protein ligase NEDD4-like S231C, Q96PU5	-0.142 ± 0.09
E3 ubiquitin-protein ligase NEDD4-like S231D, Q96PU5	-0.425 ± 0.11
E3 ubiquitin-protein ligase NEDD4-like S231E, Q96PU5	0.134 ± 0.089
E3 ubiquitin-protein ligase NEDD4-like S231F, Q96PU5	-0.275 ± 0.11
E3 ubiquitin-protein ligase NEDD4-like S231G, Q96PU5	-0.049 ± 0.064
E3 ubiquitin-protein ligase NEDD4-like S231H, Q96PU5	-0.331 ± 0.13
E3 ubiquitin-protein ligase NEDD4-like S231I, Q96PU5	0.087 ± 0.12
E3 ubiquitin-protein ligase NEDD4-like S231K, Q96PU5	-0.273 ± 0.15
E3 ubiquitin-protein ligase NEDD4-like S231L, Q96PU5	0.002 ± 0.088
E3 ubiquitin-protein ligase NEDD4-like S231M, Q96PU5	-0.222 ± 0.08
E3 ubiquitin-protein ligase NEDD4-like S231N, Q96PU5	-0.385 ± 0.12
E3 ubiquitin-protein ligase NEDD4-like S231P, Q96PU5	-0.008 ± 0.08
E3 ubiquitin-protein ligase NEDD4-like S231Q, Q96PU5	0.242 ± 0.14
E3 ubiquitin-protein ligase NEDD4-like S231R, Q96PU5	0.002 ± 0.074
E3 ubiquitin-protein ligase NEDD4-like S231T, Q96PU5	0.139 ± 0.098
E3 ubiquitin-protein ligase NEDD4-like S231V, Q96PU5	-0.062 ± 0.067
E3 ubiquitin-protein ligase NEDD4-like S231Y, Q96PU5	-0.228 ± 0.11
E3 ubiquitin-protein ligase NEDD4-like T209C, Q96PU5	-0.146 ± 0.067
E3 ubiquitin-protein ligase NEDD4-like T209D, Q96PU5	-0.311 ± 0.072
